Results on 6 molecules are retold here after patent US20140161800A1 (APTEVO RESEARCH AND DEVELOPMENT, published 2014).

The target of assay [1] is T1, prostate-specific membrane antigen (PSMA) (human, UniProt Q04609 1-750).
T1 construct: whole, on cells; also called glutamate carboxypeptidase II; N-acetylated alpha-linked acidic dipeptidase 1
Nature of the assay: flow cytometry on PSMA+ prostate cancer cells (FIG. 1).

The target in assay [2] is T1, prostate-specific membrane antigen …. Nature of the assay: flow cytometry on PSMA+ C4-2 cells (FIG. 2B). Here is the method: (§1) A typical experiment would label 300,000 cells per well with a range of 200 nM to 0.1 nM binding molecule in 100 ul of FACS buffer (PBS+2% normal goat serum+2% fetal bovine serum+0.1% sodium azide) on ice, followed by washes and incubation with fluorescently-labeled secondary antibody, goat anti-human IgG (1:400 dilution of Invitrogen #11013=5 ug/ml). After washing secondary antibody off cells, cells were incubated with 7-Aminoactinomycin D (7-AAD) staining solution (BD Pharmingen™ cat#559925) (6 ul of 7AAD to 100 ul of FACS Buffer) for 20 minutes. Signal from bound molecules was detected using a FACSCalibur™ flow cytometer (BD Biosciences) and analyzed by FlowJo flow cytometry analysis software. 7-AAD+ cells were excluded from analysis. Nonlinear regression analysis to determine EC50s was performed in GraphPad Prism® graphing and statistics software.

For assay [3] the target is unchanged. Nature of the assay: flow cytometry on PSMA+ C4-2 cells (FIG. 2A). The method, then:
as §1

T1 sequence (Q04609 whole entry): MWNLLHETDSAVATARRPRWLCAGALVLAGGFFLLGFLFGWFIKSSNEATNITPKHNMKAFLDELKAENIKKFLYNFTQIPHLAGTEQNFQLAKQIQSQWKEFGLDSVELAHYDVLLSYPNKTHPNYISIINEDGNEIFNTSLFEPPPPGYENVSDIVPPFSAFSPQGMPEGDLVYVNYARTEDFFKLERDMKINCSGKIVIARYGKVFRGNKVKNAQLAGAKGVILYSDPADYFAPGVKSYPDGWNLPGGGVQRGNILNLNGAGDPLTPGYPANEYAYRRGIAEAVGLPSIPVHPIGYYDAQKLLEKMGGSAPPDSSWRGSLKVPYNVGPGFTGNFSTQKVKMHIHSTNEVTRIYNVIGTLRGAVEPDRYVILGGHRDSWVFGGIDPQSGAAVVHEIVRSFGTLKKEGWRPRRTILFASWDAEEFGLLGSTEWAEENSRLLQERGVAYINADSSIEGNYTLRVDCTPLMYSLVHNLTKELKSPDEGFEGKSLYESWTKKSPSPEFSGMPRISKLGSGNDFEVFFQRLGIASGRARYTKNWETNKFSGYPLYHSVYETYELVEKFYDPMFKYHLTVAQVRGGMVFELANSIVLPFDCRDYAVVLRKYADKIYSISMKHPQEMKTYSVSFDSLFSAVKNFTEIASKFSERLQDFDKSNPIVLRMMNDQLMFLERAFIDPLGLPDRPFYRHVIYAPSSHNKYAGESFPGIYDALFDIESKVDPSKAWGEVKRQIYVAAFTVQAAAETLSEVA

B1: TSC092 chimeric SMIP (murine 107-1A4 VH-VL scFv-human Fc) (Fc fusion)
chain: EIQLQQSGPELVKPGASVKMSCKASGYTFTDYYMHWVKQNNGESLEWIGYFNPYNDYTRYNQNFNGKATLTVDKSSSTAYMQLNSLTSEDSAFYYCARSDGYYDAMDYWGQGTSVTVSSGGGGSGGGGSSGGGGSDVQITQSPSYLAASPGETITINCRASKSISKYLAWYQEKPGKANKLLIHSGSTLQSGIPSRFSGSGSGTDFTLTISSLEPEDFAMYYCQQHIEYPWTFGGGTKLEIKRASSEPKSSDKTHTCPPCPAPEAAGAPSVFLFPPKPKDTLMISRTPEVTCVVVDVSHEDPEVKFNWYVDGVEVHNAKTKPREEQYNSTYRVVSVLTVLHQDWLNGKAYACAVSNKALPAPIEKTISKAKGQPREPQVYTLPPSRDELTKNQVSLTCLVKGFYPSDIAVEWESNGQPENNYKTTPPVLDSDGSFFLYSKLTVDKSRWQQGNVFSCSVMHEALHNHYTQKSLSLSPGK
notes: scFv-hinge-Fc
As for B1, the binding result in assay [1] is recorded as “binds”.

B2: TSC194 Scorpion (huVL-VH#2 107-1A4 scFv-Fc-Cris7 scFv) (bispecific antibody)
chain: DIQMTQSPSAMSASVGDRVTITCRASKSISKYLAWFQQKPGKVPKLRIHSGSTLQSGVPSRFSGSGSGTEFTLTISSLQPEDFATYYCQQHIEYPWTFGQGTKVEIKRGGGGSGGGGSGGGGSQVQLVQSGAEVKKPGASVKVSCKASGYTFTDYYMHWVRQAPGQGLEWMGYFNPYNDYTRYAQKFQGRVTMTRDTSISTAYMELSSLRSDDTAVYYCARSDGYYDAMDYWGQGTTVTVSSSEPKSSDKTHTCPPCPAPEAAGAPSVFLFPPKPKDTLMISRTPEVTCVVVDVSHEDPEVKFNWYVDGVEVHNAKTKPREEQYNSTYRVVSVLTVLHQDWLNGKAYACAVSNKALPAPIEKTISKAKGQPREPQVYTLPPSRDELTKNQVSLTCLVKGFYPSDIAVEWESNGQPENNYKTTPPVLDSDGSFFLYSKLTVDKSRWQQGNVFSCSVMHEALHNHYTQKSLSLSPGQRHNNSSLNTGTQMAGHSPNSQVQLVQSGGGVVQPGRSLRLSCKASGYTFTRSTMHWVRQAPGKGLEWIGYINPSSAYTNYNQKFKDRFTISADKSKSTAFLQMDSLRPEDTGVYFCARPQVHYDYNGFPYWGQGTPVTVSSGGGGSGGGGSGGGGSAQDIQMTQSPSSLSASVGDRVTMTCSASSSVSYMNWYQQKPGKAPKRWIYDSSKLASGVPARFSGSGSGTDYTLTISSLQPEDFATYYCQQWSRNPPTFGGGTKLQITR
notes: also called humanized SCORPION molecule
Regarding B2, in assay [2], the binding result is recorded as “binds”.

B3: TSC199 Scorpion (huVL-VH#1 107-1A4 scFv-Fc-Cris7 scFv) (bispecific antibody)
chain: DIQMTQSPSAMSASVGDRVTITCRASKSISKYLAWFQQKPGKVPKLRIHSGSTLQSGVPSRFSGSGSGTEFTLTISSLQPEDFATYYCQQHIEYPWTFGQGTKVEIKRGGGGSGGGGSGGGGSEVQLVQSGAEVKKPGATVKISCKASGYTFTDYYMHWVQQAPGKGLEWMGYFNPYNDYTRYAEKFQGRVTITADTSTDTAYMELSSLRSEDTAVYYCARSDGYYDAMDYWGQGTTVTVSSSEPKSSDKTHTCPPCPAPEAAGAPSVFLFPPKPKDTLMISRTPEVTCVVVDVSHEDPEVKFNWYVDGVEVHNAKTKPREEQYNSTYRVVSVLTVLHQDWLNGKAYACAVSNKALPAPIEKTISKAKGQPREPQVYTLPPSRDELTKNQVSLTCLVKGFYPSDIAVEWESNGQPENNYKTTPPVLDSDGSFFLYSKLTVDKSRWQQGNVFSCSVMHEALHNHYTQKSLSLSPGQRHNNSSLNTGTQMAGHSPNSQVQLVQSGGGVVQPGRSLRLSCKASGYTFTRSTMHWVRQAPGKGLEWIGYINPSSAYTNYNQKFKDRFTISADKSKSTAFLQMDSLRPEDTGVYFCARPQVHYDYNGFPYWGQGTPVTVSSGGGGSGGGGSGGGGSAQDIQMTQSPSSLSASVGDRVTMTCSASSSVSYMNWYQQKPGKAPKRWIYDSSKLASGVPARFSGSGSGTDYTLTISSLQPEDFATYYCQQWSRNPPTFGGGTKLQITR
notes: as for B2
In the case of B3, in assay [2], the binding result is recorded as “binds”.

B4: TSC188 humanized SMIP (107-1A4 VL-VH#1 scFv-Fc) (Fc fusion)
chain: DIQMTQSPSAMSASVGDRVTITCRASKSISKYLAWFQQKPGKVPKLRIHSGSTLQSGVPSRFSGSGSGTEFTLTISSLQPEDFATYYCQQHIEYPWTFGQGTKVEIKRGGGGSGGGGSGGGGSEVQLVQSGAEVKKPGATVKISCKASGYTFTDYYMHWVQQAPGKGLEWMGYFNPYNDYTRYAEKFQGRVTITADTSTDTAYMELSSLRSEDTAVYYCARSDGYYDAMDYWGQGTTVTVSSSEPKSSDKTHTCPPCPAPEAAGAPSVFLFPPKPKDTLMISRTPEVTCVVVDVSHEDPEVKFNWYVDGVEVHNAKTKPREEQYNSTYRVVSVLTVLHQDWLNGKAYACAVSNKALPAPIEKTISKAKGQPREPQVYTLPPSRDELTKNQVSLTCLVKGFYPSDIAVEWESNGQPENNYKTTPPVLDSDGSFFLYSKLTVDKSRWQQGNVFSCSVMHEALHNHYTQKSLSLSPGK
notes: scFv-hinge-Fc
B4: the binding result in assay [3] was “binds”.

B5: TSC189 humanized SMIP (107-1A4 VL-VH#2 scFv-Fc) (Fc fusion)
chain: DIQMTQSPSAMSASVGDRVTITCRASKSISKYLAWFQQKPGKVPKLRIHSGSTLQSGVPSRFSGSGSGTEFTLTISSLQPEDFATYYCQQHIEYPWTFGQGTKVEIKRGGGGSGGGGSGGGGSQVQLVQSGAEVKKPGASVKVSCKASGYTFTDYYMHWVRQAPGQGLEWMGYFNPYNDYTRYAQKFQGRVTMTRDTSISTAYMELSSLRSDDTAVYYCARSDGYYDAMDYWGQGTTVTVSSSEPKSSDKTHTCPPCPAPEAAGAPSVFLFPPKPKDTLMISRTPEVTCVVVDVSHEDPEVKFNWYVDGVEVHNAKTKPREEQYNSTYRVVSVLTVLHQDWLNGKAYACAVSNKALPAPIEKTISKAKGQPREPQVYTLPPSRDELTKNQVSLTCLVKGFYPSDIAVEWESNGQPENNYKTTPPVLDSDGSFFLYSKLTVDKSRWQQGNVFSCSVMHEALHNHYTQKSLSLSPGK
notes: scFv-hinge-Fc
Regarding B5, in assay [3], the binding result is reported as “binds”.

B6: TSC085 chimeric SMIP (murine 107-1A4 VL-VH scFv-human Fc) (Fc fusion)
chain: DVQITQSPSYLAASPGETITINCRASKSISKYLAWYQEKPGKANKLLIHSGSTLQSGIPSRFSGSGSGTDFTLTISSLEPEDFAMYYCQQHIEYPWTFGGGTKLEIKRAGGGGSGGGGSSGGGGSEIQLQQSGPELVKPGASVKMSCKASGYTFTDYYMHWVKQNNGESLEWIGYFNPYNDYTRYNQNFNGKATLTVDKSSSTAYMQLNSLTSEDSAFYYCARSDGYYDAMDYWGQGTSVTVSSSEPKSSDKTHTCPPCPAPEAAGAPSVFLFPPKPKDTLMISRTPEVTCVVVDVSHEDPEVKFNWYVDGVEVHNAKTKPREEQYNSTYRVVSVLTVLHQDWLNGKAYACAVSNKALPAPIEKTISKAKGQPREPQVYTLPPSRDELTKNQVSLTCLVKGFYPSDIAVEWESNGQPENNYKTTPPVLDSDGSFFLYSKLTVDKSRWQQGNVFSCSVMHEALHNHYTQKSLSLSPGK
notes: scFv-hinge-Fc
On to B6, for which the binding result in assay [1] was “binds”.
